# Target: NANP 5.5-mer peptide, NP(NANP)5, representative of the PfCSP central repeat (Plasmodium falciparum (NF54))
# Experiment: SPR (FIG. 5E)
Substance,fold lower affinity than mAb 4493 [fold],Kd [nM]
mAb CIS43 (antibody),100,–
mAb 317 (antibody),–,< 0.1

# Source: US20220396614A1
